Experiments:
Assay in all cases: liposome flotation assay
VAP-A^His sL2 = molecular target: T1, VAP-A^His sL2 (human, UniProt Q9P0L0 8-206)
T1 chain: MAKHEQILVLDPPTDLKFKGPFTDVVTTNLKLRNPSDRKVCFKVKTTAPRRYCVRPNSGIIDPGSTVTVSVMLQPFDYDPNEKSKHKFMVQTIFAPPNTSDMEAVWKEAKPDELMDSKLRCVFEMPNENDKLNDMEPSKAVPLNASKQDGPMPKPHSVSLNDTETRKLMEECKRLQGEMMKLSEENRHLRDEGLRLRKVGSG

VAP-A^His sL1 = molecular target: T2, VAP-A^His sL1 (human, UniProt Q9P0L0 8-132; Q9P0L0 165-230)
T2 chain: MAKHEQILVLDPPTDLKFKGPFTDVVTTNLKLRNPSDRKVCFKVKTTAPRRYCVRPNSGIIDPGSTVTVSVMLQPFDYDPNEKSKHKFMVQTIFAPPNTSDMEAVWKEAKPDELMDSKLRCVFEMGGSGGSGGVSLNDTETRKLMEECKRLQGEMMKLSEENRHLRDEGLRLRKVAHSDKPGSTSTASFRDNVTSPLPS

VAP-A^His sL1/2 = molecular target: T3, VAP-A^His sL1/2 (human, UniProt Q9P0L0 8-132; Q9P0L0 165-206)
T3 chain: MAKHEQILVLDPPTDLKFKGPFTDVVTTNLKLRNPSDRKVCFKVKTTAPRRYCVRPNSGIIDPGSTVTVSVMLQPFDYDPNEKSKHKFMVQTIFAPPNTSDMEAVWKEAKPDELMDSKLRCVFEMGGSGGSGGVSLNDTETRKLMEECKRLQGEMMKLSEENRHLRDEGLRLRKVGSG

VAP-A^His WT = molecular target: T4, VAP-A^His WT (human, UniProt Q9P0L0 8-230)
T4 sequence (looked up): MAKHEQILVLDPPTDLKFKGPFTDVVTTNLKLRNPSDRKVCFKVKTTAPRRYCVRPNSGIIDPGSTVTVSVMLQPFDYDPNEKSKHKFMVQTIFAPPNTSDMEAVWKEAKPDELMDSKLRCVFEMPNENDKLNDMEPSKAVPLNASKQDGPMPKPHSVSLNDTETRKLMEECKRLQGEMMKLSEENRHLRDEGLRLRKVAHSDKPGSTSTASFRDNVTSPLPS

Measured: binding result

WCSGKGDMSDEDDENEFFDAPEIITMPENLGH [FFAT peptide]
binds: all assays above
